Measured values from patent US20260167721A1 (ABLEXIS, published 2026).

Legend:
[1] = biological target: T1, CD3 on human donor PBMC / Pan T effector cells (human, UniProt P07766 23-207; P09693 23-182; P04234 22-171; P20963 22-164); assay: cell-based or functional assay
[2] = biological target: T1, CD3 on human donor PBMC / Pan T …; assay: cell-based or functional assay; remark: listed apart in the source

T1 sequence (P07766 23-207, chain 1 of 4): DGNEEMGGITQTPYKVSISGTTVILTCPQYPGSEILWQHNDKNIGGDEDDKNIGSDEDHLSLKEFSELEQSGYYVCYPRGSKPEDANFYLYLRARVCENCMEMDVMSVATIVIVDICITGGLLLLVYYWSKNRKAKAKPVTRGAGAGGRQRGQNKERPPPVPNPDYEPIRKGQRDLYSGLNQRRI
T1 sequence (P09693 23-182, chain 2 of 4): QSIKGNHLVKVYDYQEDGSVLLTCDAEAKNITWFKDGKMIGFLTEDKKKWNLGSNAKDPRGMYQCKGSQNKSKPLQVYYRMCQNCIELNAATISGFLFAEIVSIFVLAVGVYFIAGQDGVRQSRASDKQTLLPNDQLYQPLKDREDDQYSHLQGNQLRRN
T1 sequence (P04234 22-171, chain 3 of 4): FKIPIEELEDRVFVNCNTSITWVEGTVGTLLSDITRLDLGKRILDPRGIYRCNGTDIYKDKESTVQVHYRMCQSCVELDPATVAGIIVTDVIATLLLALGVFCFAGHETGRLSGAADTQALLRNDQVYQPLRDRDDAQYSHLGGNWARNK
T1 sequence (P20963 22-164, chain 4 of 4): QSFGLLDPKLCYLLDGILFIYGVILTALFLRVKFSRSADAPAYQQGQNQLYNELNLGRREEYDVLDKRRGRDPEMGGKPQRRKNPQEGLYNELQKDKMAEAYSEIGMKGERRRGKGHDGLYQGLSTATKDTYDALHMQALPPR

Binder	Cytokine Release Assay (TNFα) Donor 0 EC50 [1] [nM]	Cytokine Release Assay (TNFα) Donor 0 gMFI max [1] [gMFI]	Cytokine Release Assay (TNFα) Donor 1 EC50 [1] [nM]	Cytokine Release Assay (TNFα) Donor 1 gMFI max [1] [gMFI]	Cytokine Release Assay (TNFα) Donor 2 EC50 [1] [nM]	Cytokine Release Assay (TNFα) Donor 2 gMFI max [1] [gMFI]	Cytokine Release Assay (TNFα) Donor 3 EC50 [1] [nM]	Cytokine Release Assay (TNFα) Donor 3 gMFI max [1] [gMFI]	Cytokine Release Assay (IL2) Donor 0 EC50 [2] [nM]	Cytokine Release Assay (IL2) Donor 0 gMFI max [2] [gMFI]	Cytokine Release Assay (IL2) Donor 1 EC50 [2] [nM]	Cytokine Release Assay (IL2) Donor 1 gMFI max [2] [gMFI]	Cytokine Release Assay (IL2) Donor 2 EC50 [2] [nM]	Cytokine Release Assay (IL2) Donor 2 gMFI max [2] [gMFI]	Cytokine Release Assay (IL2) Donor 3 EC50 [2] [nM]	Cytokine Release Assay (IL2) Donor 3 gMFI max [2] [gMFI]
CD3 × CD33-BspAb115 (bispecific antibody) chain 1: NFMLTQPHSVSESPGKTVTISCTRTSGSIASNYVQWYQQRPGSSPTTVIYEDNQRPSGVPDRFSGSIDSSSNSASLTISGLKTEDEAAYYCQSYDRSNRVFGCGTKLTVLGGGGSGGGGSGGGGSGGGGSQVQLQESGPGLVKPSETLSLTCTVSGGSISSYYWSWIRQPAGKCLEWIGRIYTSGSTKYNPSLKSRVTMSVDTSKNQFSLKLISVTAADTAVYFCARERIRDLYFDYWGQGTLVTVSSDKTHTCPPCPAPEFEGGPSVFLFPPKPKDTLMISRTPEVTCVVVDVSHEDPEVKFNWYVDGVEVHNAKTKPREEQYNSTYRVVSVLTVLHQDWLNGKEYKCKVSNKALPASIEKTISKAKGQPREPQVYTLPPCREEMTKNQVSLWCLVKGFYPSDIAVEWESNGQPENNYKTTPPVLDSDGSFFLYSKLTVDKSRWQQGNVFSCSVMHEALHNHYTQKSLSLSPGK chain 2: EVQLVQSGAEVKKPGSSVKVSCKASGYTITDSNIHWVRQAPGQSLEWIGYIYPYNGGTDYNQKFKNRATLTVDNPTNTAYMELSSLRSEDTAFYYCVNGNPWLAYWGQGTLVTVSSASTKGPSVFPLAPSSKSTSGGTAALGCLVKDYFPEPVTVSWNSGALTSGVHTFPAVLQSSGLYSLSSVVTVPSSSLGTQTYICNVNHKPSNTKVDKRVEPKSCDKTHTCPPCPAPEFEGGPSVFLFPPKPKDTLMISRTPEVTCVVVDVSHEDPEVKFNWYVDGVEVHNAKTKPREEQYNSTYRVVSVLTVLHQDWLNGKEYKCKVSNKALPASIEKTISKAKGQPREPQVCTLPPSREEMTKNQVSLSCAVKGFYPSDIAVEWESNGQPENNYKTTPPVLDSDGSFFLVSKLTVDKSRWQQGNVFSCSVMHEALHNRFTQKSLSLSPGK chain 3: DIQLTQSPSTLSASVGDRVTITCRASESLDNYGIRFLTWFQQKPGKAPKLLMYAASNQGSGVPSRFSGSGSGTEFTLTISSLQPDDFATYYCQQTKEVPWSFGQGTKVEVKRTVAAPSVFIFPPSDEQLKSGTASVVCLLNNFYPREAKVQWKVDNALQSGNSQESVTEQDSKDSTYSLSSTLTLSKADYEKHKVYACEVTHQGLSSPVTKSFNRGEC	0.0814	91600	0.0553	13000	0.0452	24100	0.046	48600	0.206	242000	0.0755	99300	0.0806	45200	0.0479	300000
CD3 × CD33-BspAb125 (bispecific antibody) chain 1: not shown chain 2: EVQLVQSGAEVKKPGSSVKVSCKASGYTITDSNIHWVRQAPGQSLEWIGYIYPYNGGTDYNQKFKNRATLTVDNPTNTAYMELSSLRSEDTAFYYCVNGNPWLAYWGQGTLVTVSSASTKGPSVFPLAPSSKSTSGGTAALGCLVKDYFPEPVTVSWNSGALTSGVHTFPAVLQSSGLYSLSSVVTVPSSSLGTQTYICNVNHKPSNTKVDKRVEPKSCDKTHTCPPCPAPEFEGGPSVFLFPPKPKDTLMISRTPEVTCVVVDVSHEDPEVKFNWYVDGVEVHNAKTKPREEQYNSTYRVVSVLTVLHQDWLNGKEYKCKVSNKALPASIEKTISKAKGQPREPQVCTLPPSREEMTKNQVSLSCAVKGFYPSDIAVEWESNGQPENNYKTTPPVLDSDGSFFLVSKLTVDKSRWQQGNVFSCSVMHEALHNRFTQKSLSLSPGK chain 3: DIQLTQSPSTLSASVGDRVTITCRASESLDNYGIRFLTWFQQKPGKAPKLLMYAASNQGSGVPSRFSGSGSGTEFTLTISSLQPDDFATYYCQQTKEVPWSFGQGTKVEVKRTVAAPSVFIFPPSDEQLKSGTASVVCLLNNFYPREAKVQWKVDNALQSGNSQESVTEQDSKDSTYSLSSTLTLSKADYEKHKVYACEVTHQGLSSPVTKSFNRGEC	0.475	39600		5100	0.054	12000	0.0446	17800	0.105	52800	0.102	22300	0.115	25100		65800
High affinity Control (Control Humanized anti-CD3 (high affinity) scFv-Fc knob/TM x gemtuzumab) (bispecific antibody) EVQLVESGGGLVQPGGSLRLSCAASGFTFSTYAMNWVRQAPGKGLEWVGRIRSKYNNYATYYADSVKGRFTISRDDSKNTLYLQMNSLRAEDTAVYYCVRHGNFGDSYVSWFAYWGQGTLVTVSSGKPGSGKPGSGKPGSGKPGSQAVVTQEPSLTVSPGGTVTLTCGSSTGAVTTSNYANWVQQKPGKSPRGLIGGTNKRAPGVPARFSGSLLGGKAALTISGAQPEDEADYYCALWYSNHWVFGGGTKLTVLGGGGSDKTHTCPPCPAPEFEGGPSVFLFPPKPKDTLMISRTPEVTCVVVDVSHEDPEVKFNWYVDGVEVHNAKTKPREEQYNSTYRVVSVLTVLHQDWLNGKEYKCKVSNKALPASIEKTISKAKGQPREPQVYTLPPCREEMTKNQVSLWCLVKGFYPSDIAVEWESNGQPENNYKTTPPVLDSDGSFFLYSKLTVDKSRWQQGNVFSCSVMHEALHNHYTQKSLSLSPGK heavy: EVQLVQSGAEVKKPGSSVKVSCKASGYTITDSNIHWVRQAPGQSLEWIGYIYPYNGGTDYNQKFKNRATLTVDNPTNTAYMELSSLRSEDTAFYYCVNGNPWLAYWGQGTLVTVSSASTKGPSVFPLAPSSKSTSGGTAALGCLVKDYFPEPVTVSWNSGALTSGVHTFPAVLQSSGLYSLSSVVTVPSSSLGTQTYICNVNHKPSNTKVDKRVEPKSCDKTHTCPPCPAPEFEGGPSVFLFPPKPKDTLMISRTPEVTCVVVDVSHEDPEVKFNWYVDGVEVHNAKTKPREEQYNSTYRVVSVLTVLHQDWLNGKEYKCKVSNKALPASIEKTISKAKGQPREPQVCTLPPSREEMTKNQVSLSCAVKGFYPSDIAVEWESNGQPENNYKTTPPVLDSDGSFFLVSKLTVDKSRWQQGNVFSCSVMHEALHNRFTQKSLSLSPGK light: DIQLTQSPSTLSASVGDRVTITCRASESLDNYGIRFLTWFQQKPGKAPKLLMYAASNQGSGVPSRFSGSGSGTEFTLTISSLQPDDFATYYCQQTKEVPWSFGQGTKVEVKRTVAAPSVFIFPPSDEQLKSGTASVVCLLNNFYPREAKVQWKVDNALQSGNSQESVTEQDSKDSTYSLSSTLTLSKADYEKHKVYACEVTHQGLSSPVTKSFNRGEC	0.459	231000	13.1	113000	5.98	125000	0.212	129000	0.456	377000	1.64	179000	16.7	121000	0.172	347000
